Measurements reported in PMC2749821 (2009).

T1: BMPR1B (Mus musculus (Mouse), UniProt P36898)
T1 chain: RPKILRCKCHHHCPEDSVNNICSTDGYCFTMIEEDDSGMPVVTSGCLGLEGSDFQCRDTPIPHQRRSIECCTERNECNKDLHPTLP

T2: ACVR2B (Mus musculus (Mouse), UniProt P27040)
T2 chain: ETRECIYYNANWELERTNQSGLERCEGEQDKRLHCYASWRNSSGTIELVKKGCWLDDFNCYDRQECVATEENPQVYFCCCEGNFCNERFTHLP


Assays:
BMPR1B = molecular target: T1, BMPR1B; assay: SPR 1:1 (ligand immobilised, monomeric ECD analyte)
ACVR2B = molecular target: T2, ACVR2B; assay: as above

| Kd (BMPR1B) [nM] | Kd (ACVR2B) [nM] | Binder |
| --- | --- | --- |
| 750 | 2500 | BMP7 (protein) chain 1: DQRQACKKHELYVSFRDLGWQDWIIAPEGYAAYYCEGECAFPLNSYMNATNHAIVQTLVHFINPETVPKPCCAPTQLNAISVLYFDDSSNVILKKYRNMVVRACGCH chain 2: DQRQACKKHELYVSFRDLGWQDWIIAPEGYAAYYCEGECAFPLNSYMNATNHAIVQTLVHFINPETVPKPCCAPTQLNAISVLYFDDSSNVILKKYRNMVVRACGCH |
| > 64000 | 88 | ActivinA (protein) chain 1: GLECDGKVNICCKKQFFVSFKDIGWNDWIIAPSGYHANYCEGECPSHIAGTSGSSLSFHSTVINHYRMRGHSPFANLKSCCVPTKLRPMSMLYYDDGQNIIKKDIQNMIVEECGCS chain 2: GLECDGKVNICCKKQFFVSFKDIGWNDWIIAPSGYHANYCEGECPSHIAGTSGSSLSFHSTVINHYRMRGHSPFANLKSCCVPTKLRPMSMLYYDDGQNIIKKDIQNMIVEECGCS |
